The record followed here is publication PMC5727262, “Molecular mechanism of K65 acetylation-induced attenuation of Ubc9 and the NDSM interaction” (Scientific Reports, 2017).

The target in the assay is Ac-Ubc9K65 (Ubc9 acetylated at K65), P63279. Nature of the assay: ITC; 2 μl additions of peptide to 200 μl of WT Ubc9 or Ac-Ubc9K65; 25 °C; pH 8.0, 20 mM potassium phosphate, 100 mM NaCl; iTC200; fitted assuming 1:1 binding stoichiometry. A general note: Isothermal titration calorimetry measures the heat released or taken up as one component is titrated into another.
Chain of Ac-Ubc9K65 (Ubc9 acetylated at K65), P63279 (P63279 whole entry): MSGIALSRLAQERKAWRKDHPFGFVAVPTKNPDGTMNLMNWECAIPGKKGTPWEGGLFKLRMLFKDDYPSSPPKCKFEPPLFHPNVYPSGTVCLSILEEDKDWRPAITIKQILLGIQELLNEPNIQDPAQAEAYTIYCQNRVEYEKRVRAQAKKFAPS

As to VKVEVKEEEESSSN (modifications not checked) [CBP NDSM peptide], the Kd (commonly a measure of binding affinity in units of concentration) amounted to 105 µM.
